{"source": "the nanobody polyreactivity screen of Harvey et al. (2022)", "data": [{"assay": "yeast display, Sf9 membrane polyspecificity reagent, FACS + sequencing; frameworks hold sequencing errors", "in_short": "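Sorting gates, low and high (top ~1%), were placed on anti-HA fluorescence to track expression and on streptavidin fluorescence to track reagent binding. A clone's polyreactivity label is taken from the gate it came out of. The reagent was 10% biotinylated, detergent-solubilized Sf9 membrane, applied for 1 hour at 4 °C to galactose-induced yeast display cells.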", "values": [{"sequence": "QVQLEESGGGLVQAGGSLRLSCAASGFTFVYYAMGRYRQATGKERELVAAISWRDGDTYYADSVKGRFTISRDNAKNTVYVQMNSLKPEDTAVYYCAADYSYFKDDDWGQGTQVTVSS", "polyreactivity (PSR sort gate)": "low polyreactivity"}, {"sequence": "QVQLEESGGGLVQAGGSLRLSCAASGFTFWLYAMGWYRQAPGKEREFVAAISTSGGSTYADSVKGRFTISRDNAKNTVYLQMNSLKPEDTAVYYCNAGYLLYYDYHLFYWGQGTQVTVSS", "polyreactivity (PSR sort gate)": "low polyreactivity"}, {"sequence": "QVQLEESGGGLVQAGGSLRLSCAASGFTFYIYALGWYRQAPGKERELVAAISSSGTRTYYADSVKGRFTISRDNAKNTVYLQMNSLKPEDTAVYYCAATRYSWHNRVSRRHRYDYWGQGTQVTVSS", "polyreactivity (PSR sort gate)": "high polyreactivity"}, {"sequence": "QVQLEESGGGLVQAGGSLRLSCAASGFTIRLYARGWYRQAPGKVRELVAAITSGGSTYADSVKGRFTISRDNAKNTVYLQMNSLKPEDTAVNYCAAVSRYWAKYEYWGQGTQVTVSS", "polyreactivity (PSR sort gate)": "high polyreactivity"}, {"sequence": "QVQLEESGGGLVQAGGSLRLSCAASGFTSYYAMGWYRQAPGKERELVAAIRYSTVSTYYADAVKGRFTISRDNAKNTVYLQMNIMKPEDTAVYYCAAQRRPYLPGHYYYWGQGTQVTVSS", "polyreactivity (PSR sort gate)": "high polyreactivity"}, {"sequence": "QVQLEESGGGLVQAGGSLRLSCAASGGILVFYALGWYRQAPGTERELVAAINVSGRSTYYADSVKGRFTISRDNAKNTVYVQMNSLKPEDTAVYYCAADYYYVWYDYWGQGTQVTVSS", "polyreactivity (PSR sort gate)": "low polyreactivity"}, {"sequence": "QVQLEESGGGLVQAGGSLRLSCAASGIIFKLYAMGWYRQAPGKERELVAAITYRGGTTYYADSVKGRFTISRDNAKNTDYLQMNSLKPEDTAVYYCAVAVTSYSSKKLYYWGQGTQVTVSS", "polyreactivity (PSR sort gate)": "low polyreactivity"}, {"sequence": "QVQLEESGGGLVQAGGSLRLSCAASGINLTGYTMGWYRKATGKERQLVAAITYGGTSTYYADSVKGRFTISRDNAKNTVYLQMNSLKPEDTAVYYCAALYRGPRYGYWGQGTQVTVSS", "polyreactivity (PSR sort gate)": "high polyreactivity"}, {"sequence": "QVQLEESGGGLVQAGGSLRLSCAASGISFDTYAMGRNRPAPGKERELVAAMSSSGSTNYADSVKGRFTISRDNAKKTVYLQMNSLKPEDTADYYCATDYWPGTGGTYDYWGQGTQVTVSS", "polyreactivity (PSR sort gate)": "low polyreactivity"}, {"sequence": "QVQLEESGGGLVQAGGSLRLSCAASGITFEYYAMVWYRQAPGKERELVAANDTGGSTNYADSVKGRFTISRDNAKNTVYFLMNSLKPEDTEVYYCAADWSWWDGEDYHFEYDYWGQGTQVTVSS", "polyreactivity (PSR sort gate)": "low polyreactivity"}, {"sequence": "QVQLEESGGGLVQAGGSLRLSCAASGITFLNYAMGWYRQAPGKERELVAAISWSGGRTYYADSVKGRFTISRDNAKNTVYLQMNSLKPEDTAVYYCAVRGSWYSEHNYWGQGTQVTVSS", "polyreactivity (PSR sort gate)": "high polyreactivity"}, {"sequence": "QVQLEESGGGLVQAGGSLRLSCAASGITFYYYAMGWYRRAPGKERELVAANSSGGSKSYADSVKGRFTISRDNAKNNVYLQMNSLKPDDSAVYYCAADLPYLWYPFYYWGQGTQVTVSS", "polyreactivity (PSR sort gate)": "high polyreactivity"}, {"sequence": "QVQLEESGGGLVQAGGSLRLSCAASGLIFIQYAMVWNRQAPGKERELVAAISGSGVTTYYADSVNGSFTISRDKAMNTVYLQMTSLKPEDTAVYYCNAALRWKYDWGQGTQVTVSS", "polyreactivity (PSR sort gate)": "low polyreactivity"}, {"sequence": "QVQLEESGGGLVQAGGSLRLSCAASGLIFVHYTMGWYRQAPGKERELVAAISRSGGSTSYADSVKGRFTISRDTAKNSVYLQMNSLKPEDTAVYYCAAVGSRSGLTPYEYWGQGTQVTVSS", "polyreactivity (PSR sort gate)": "high polyreactivity"}, {"sequence": "QVQLEESGGGLVQAGGSLRLSCAASGLILRWNAMGWYRQAPGKERELVATINRGGSTNYADSVKGRFTISRDNAKNTVYLQMNSLKPEDTAVYYCYKARTSQYHHTYWRTYGYWGPGTQVTVSS", "polyreactivity (PSR sort gate)": "low polyreactivity"}, {"sequence": "QVQLEESGGGLVQAGGSLRLSCAASGLTFTPNAMGWYRPAPGKEWELVAAITNGGSTNYADSVKGCFTISRDNAKNTVYLQMNSLKPEDTAVYYCAAECSYWFRRYGYWGQGTQVTVSS", "polyreactivity (PSR sort gate)": "high polyreactivity"}, {"sequence": "QVQLEESGGGLVQAGGSLRLSCAASGLTFYSYAMGWYRQAPGKERELVAGINYSGDSTHYADSVKGRFTISRDNAKNTVYLQMNSLKPEDTAVYYCASQTFVYRKELLSRYEYWGQGTQVTVSS", "polyreactivity (PSR sort gate)": "high polyreactivity"}, {"sequence": "QVQLEESGGGLVQAGGSLRLSCAASGNIFRDYAMGWYRQAPGKERELVAAISWSGGSTYYADSVKGRFTISRDNAKNTVYLQMNSLKPEDTAVYYCAARKPYSYNYWGQGTQVTVSS", "polyreactivity (PSR sort gate)": "high polyreactivity"}, {"sequence": "QVQLEESGGGLVQAGGSLRLSCAASGRIFATNAMGWYRQAPGKERELVATITRSAGRTYYADSVKGRFTISRDNAKNTVYLHMNSLKPEDTAVYYCASSYWDTEPVYREYDYWGQGTQVTVSS", "polyreactivity (PSR sort gate)": "low polyreactivity"}, {"sequence": "QVQLEESGGGLVQAGGSLRLSCAASGRIFAYYAMGWYRQAPGKERELVAAIRGSGGSTYYADSVKGRFTISRDNAKNTVYLQMNSLKPEDTAVYYCAARTQPKKFYYWGQGTQVTVSS", "polyreactivity (PSR sort gate)": "high polyreactivity"}, {"sequence": "QVQLEESGGGLVQAGGSLRLSCAASGRIFFKYSMGWYRQAPGKERELVATISSSTGSTYYADSVKGRFTISRDNAKNTDYLQMNSLKPEDTAVYYCNARVRTQQRWVDYWGQGTQVTVSS", "polyreactivity (PSR sort gate)": "high polyreactivity"}, {"sequence": "QVQLEESGGGLVQAGGSLRLSCAASGRIFIAYTMGWYRQAPGKERELVAAITWNGGSTYYADSVKGRFTISRDNAMNTVYLQMNSLKPEDTAVYYWVLVSRPGPKPAREMDYWGQGTQVTVSS", "polyreactivity (PSR sort gate)": "low polyreactivity"}, {"sequence": "QVQLEESGGGLVQAGGSLRLSCAASGRIFLWYAMGWYRQAPGKERELVAAISSNGGSTRYADSVKGRFTISRDNAKNTVYLQMNSLKPEDTALYYCNADVHWNRYPYGGNGYGYWGQGTQVTVSS", "polyreactivity (PSR sort gate)": "low polyreactivity"}, {"sequence": "QVQLEESGGGLVQAGGSLRLSCAASGRIFLYKIMGSYREAPGQERDLVAAISWGTGSTYADSVKGRFTISRDNAINTVYLQIYRLKPEDTAVYYCDADSFMPPYYHWGQGTQVTVSS", "polyreactivity (PSR sort gate)": "low polyreactivity"}, {"sequence": "QVQLEESGGGLVQAGGSLRLSCAASGRIFRYYTMGGYRQAPGKERELVDAISGSGGSTYYADSVKGRFTISRDNAKNTVYLQMNSLKPEDTSVYYCAAAHRYWGQGTQVTVSS", "polyreactivity (PSR sort gate)": "high polyreactivity"}, {"sequence": "QVQLEESGGGLVQAGGSLRLSCAASGRIFSGYAMGWYRQAPGIERELVAAIDSVGDTYYADSVKVRFTISRDNAKNTVYLQMNSLKPEDTAVYYCAAERTVRMVLSPTDEMDYWGQGTQVNVSS", "polyreactivity (PSR sort gate)": "low polyreactivity"}, {"sequence": "QVQLEESGGGLVQAGGSLRLSCAASGRIFTWYTMGWYRQAPGKEREFVAAITRSGTSTYYADSVKGRFTISRDNAKNTVYLQMNSLKPEDTAVYYCAAGKPRSKYWYDYWGQGTQVTVSS", "polyreactivity (PSR sort gate)": "high polyreactivity"}, {"sequence": "QVQLEESGGGLVQAGGSLRLSCAASGRIFWYYDMGWYRQAPGKERELVAAISQRGGSTYYADSVKGRFTISRDNAKNTVYLQMNSLKAEDTAVYYCAKRNPYWATREYWGQGTQVTVSS", "polyreactivity (PSR sort gate)": "high polyreactivity"}, {"sequence": "QVQLEESGGGLVQAGGSLRLSCAASGRIFYTYVMGWYRQAPEKERELVAAITGGGSKYYAYSVKGRFTISRDNAKNTVYLQMNSLKPEDTAVSYCAKRSYGDRDERYDSWGQGTQVTVSS", "polyreactivity (PSR sort gate)": "low polyreactivity"}, {"sequence": "QVQLEESGGGLVQAGGSLRLSCAASGRILVKNTMGWYRQAPGKERELVAAITSGGNTYYADSVKGRFTISRDNAKNTVYLQMNSLKPEDTAVYYCNKVSNRSGYYWGQGTQVTVSS", "polyreactivity (PSR sort gate)": "high polyreactivity"}, {"sequence": "QVQLEESGGGLVQAGGSLRLSCAASGRTFDRYAMGWYRQAPGKERELVAAITWSGGRTYYADSVKGRFTISRVNAKNTVYLQMNSLKPEDTAVYYCAADNSYRGYHSPYDYWGQGTQVTVSS", "polyreactivity (PSR sort gate)": "low polyreactivity"}, {"sequence": "QVQLEESGGGLVQAGGSLRLSCAASGRTFGWNGMGWYRQAPGKERELVAVISSGGSTKYADSVKGRFTISRDNAKNTVYLQMNSLKPEDTALYYCAKDWVRSGRRNMDYWGQGTQVTFSS", "polyreactivity (PSR sort gate)": "low polyreactivity"}]}]}
